In US8465735B2, “Variant form of urate oxidase and use thereof” (Savient Pharmaceuticals, Inc., priority 2005, dated 2013) one finds Km and kcat data, which are given here for 1 protein.

Substrate in this series: O=c1[nH]c(=O)c2[nH]c(=O)[nH]c2[nH]1
Kind of series: purified protein, by the assay type. Particulars: other: sodium borate buffer, pH 9.2, 25.0 °C.

B1: Pig uricase, native (Sigma) (Sus scrofa) (protein)
chain: MAHYRNDYKKNDEVEFVRTGYGKDMIKVLHIQRDGKYHSIKEVATSVQLTLSSKKDYLHGDNSDVIPTDTIKNTVNVLAKFKGIKSIETFAVTICEHFLSSFKHVIRAQVYVEEVPWKRFEKNGVKHVHAFIYTPTGTHFCEVEQIRNGPPVIHSGIKDLKVLKTTQSGFEGFIKDQFTTLPEVKDRCFATQVYCKWRYHQGRDVDFEATWDTVRSIVLQKFAGPYDKGEYSPSVQKTLYDIQVLTLGQVPEIEDMEISLPNIHYLNIDMSKMGLINKEEVLLPLDNPYGRITGTVKRKLTSRL
In general, Km refers to the substrate concentration at which the rate is half of its maximum. In general, kcat refers to the maximal rate divided by the concentration of active sites. In the case of B1, the Michaelis-Menten constant (Km) was 5.85 µM and the kcat amounted to 15 s⁻¹.
